This note sets out measurements from paper PMC2814116.

In this assay the target is Phaseolus coccineus PCNA1 (PcPCNA1), recombinant (Phaseolus coccineus). The assay can be described thus: SEC. Background: SEC sorts molecules by how far they enter the pores of the column.

As to “Phaseolus coccineus PCNA1 (PcPCNA1), recombinant (natural protein)”, the stoichiometry N is 3.

Broadly, the stoichiometry N is a count of units in the complex or per binding partner.
